From US20190177408A1 (SUZHOU CONNECT BIOPHARMACEUTICALS, published 2019) come the findings set out here.

Changes are numbered by the printed parent chain. Read-outs that look alike come from different tables or passages of the source.

Assay [1] has as its target T1, IL-4Rα on TF-1 cells (human, UniProt P24394 26-825).
T1 sequence (looked up): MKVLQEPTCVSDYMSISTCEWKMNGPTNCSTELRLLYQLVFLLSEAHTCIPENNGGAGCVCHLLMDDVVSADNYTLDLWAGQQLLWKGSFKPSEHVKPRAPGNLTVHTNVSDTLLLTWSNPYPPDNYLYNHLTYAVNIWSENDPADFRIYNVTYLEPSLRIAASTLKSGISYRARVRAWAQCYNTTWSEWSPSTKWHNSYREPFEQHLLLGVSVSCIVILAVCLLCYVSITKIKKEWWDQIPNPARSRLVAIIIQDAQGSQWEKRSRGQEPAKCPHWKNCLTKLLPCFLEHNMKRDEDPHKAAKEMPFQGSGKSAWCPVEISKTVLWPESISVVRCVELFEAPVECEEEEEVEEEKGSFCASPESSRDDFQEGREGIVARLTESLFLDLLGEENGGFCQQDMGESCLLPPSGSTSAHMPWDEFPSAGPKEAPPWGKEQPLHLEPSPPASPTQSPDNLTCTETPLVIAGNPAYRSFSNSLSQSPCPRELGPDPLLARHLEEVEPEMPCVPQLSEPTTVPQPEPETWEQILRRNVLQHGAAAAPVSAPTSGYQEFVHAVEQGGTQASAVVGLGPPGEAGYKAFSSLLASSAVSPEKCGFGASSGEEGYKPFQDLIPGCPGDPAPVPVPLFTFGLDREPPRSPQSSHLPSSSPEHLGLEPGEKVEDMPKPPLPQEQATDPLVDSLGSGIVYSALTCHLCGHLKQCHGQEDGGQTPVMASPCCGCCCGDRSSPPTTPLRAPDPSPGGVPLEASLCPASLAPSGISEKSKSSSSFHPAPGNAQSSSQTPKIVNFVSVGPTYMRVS
Put plainly: cell-based or functional assay.

For assay [2], the target named is T2, human soluble IL-4Rα (sIL-4Rα) (human, UniProt P24394 26-232).
T2 construct: Bought reagent (PEPRO TECH, Catalog Number 200-04R); also called shIL-4Rα; soluble hIL-4 Rα
T2 sequence: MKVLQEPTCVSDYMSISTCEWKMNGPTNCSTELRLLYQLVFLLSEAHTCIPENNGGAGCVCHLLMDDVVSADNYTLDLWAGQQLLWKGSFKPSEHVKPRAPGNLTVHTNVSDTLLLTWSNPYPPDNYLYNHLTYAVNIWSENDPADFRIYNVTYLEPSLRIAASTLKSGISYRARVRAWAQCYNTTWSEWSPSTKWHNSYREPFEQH
Put plainly: ELISA, coated sIL-4Rα, culture supernatant. The method, then: 100 μl of 100 μg/ml sIL-4Rα solution was added to 9.90 ml of PBS, mixed up and down, and then an antigen coating buffer of 1.0 μg/ml was obtained. The prepared antigen coating buffer was added to a 96-well ELISA plate (Corning) with a volume of 100 μl per well. The 96-well ELISA plate was incubated overnight in a refrigerator at 4° C. On the next day; the solution therein was discarded; and PBS containing 2% BSA was added to the 96-well ELISA plate row by row with a volume of 300 μl per well. The 96-well ELISA plate was incubated for 2 hours in a refrigerator at 4° C., Then the PBS containing 2% BSA was discarded and the plate was washed 3 times with PBST. Diluted antibodies to be tested were sequentially added to the corresponding wells, while the normal cell culture supernatants, as negative control samples, were added too. Three duplicate wells were made for each sample with a volume of 100 μl per well. The ELISA plate was wrapped with preservative film (or covered) and incubated for 1 h at […] in a constant temperature incubator. Subsequently, the 96-well ELISA plate was taken out, and the solution therein was discarded. After washing with PBST for 3 times, TMB solution (Solarbio, Catalog Number: PR1200) was added to the 96-well ELISA plate row by row with a volume of 100 μl per well. The 96-well ELISA plate was placed at room temperature for 5 minutes, and 2 M H2SO4 solution was added in immediately to terminate the reaction. The 96-well ELISA plate was placed in flexstation 3 (Molecular Devices), the values of OD450 were read, and the data were collected, calculated and analyzed. Results were expressed relative to the affinity of control antibody 1.
For orientation: In an ELISA, binding on a coated surface is turned into a signal by an enzyme label.

For assay [3], the target named is T1, IL-4Rα on TF-1 cells. Put plainly: cell-based or functional assay. The source holds these as a separate data set.

B1: L1001H1000 (antibody, V domains shown)
VH: EVQLVQSGGGLVHPGGSLRLSCAGSGFTFSRNAMFWVRQAPGKGLEWVSGIGTGGATNYADSVKGRFTISRDNAKNSLYLQMNSLRAEDMAVYYCARGRYYFDYWGQGTLVTVSS
VL: EIVLTQSPGTLSLSPGERATLSCRASQSVSNSYLAWYQQKPGQAPRLLIYGASSRAPGIPDRFSGSGSGTDFTLTISRLEPEDFAVYYCQQYDHSAGWTFGQGTKVEIK
notes: human kappa
As for B1, in assay [1], the “Inhibitory rate on pro-proliferative effect of IL-4” value (from here on “Inhibitory rate … of IL-4”) was determined as 0.98 and the “Inhibitory rate on pro-proliferative effect of IL-13” value (from here on “Inhibitory rate … of IL-13”) is 0.85. For the same molecule, the “OD 450/OD450Control antibody 1” value in assay [2] is 1.56.

B2: L1021H1000 (antibody, V domains shown)
VH: B1 VH
VL: B1 VL with N31S, Y50F
notes: human kappa
Take B2: in assay [1], the “Inhibitory rate … of IL-4” value was determined as 0.95 and the “Inhibitory rate … of IL-13” value amounted to 0.78. Also, the “OD 450/OD450Control antibody 1” value in assay [2] is 2.42.

B3: L1023H1000 (antibody, V domains shown)
VH: B1 VH
VL: B1 VL with N31S
As to B3, in assay [3], the “Inhibitory rate … of IL-4” value came to 0.26 and the “Inhibitory rate … of IL-13” value came out at 0.07.

B4: L1021H1029 (antibody, V domains shown)
VH: B1 VH with Q6E, H13Q, G24A, N58S, D103P, Y104W
VL: B1 VL with N31S, Y50F
notes: human kappa
B4: in assay [1], the “Inhibitory rate … of IL-4” value turned out to be 1.02 and the “Inhibitory rate … of IL-13” value was 0.92. Besides, the “OD 450/OD450Control antibody 1” value in assay [2] was 1.

B5: L1020H1000 (antibody, V domains shown)
VH: B1 VH
VL: B1 VL with N31S, P57T
notes: human kappa
As to B5, in assay [2], the “OD 450/OD450Control antibody 1” value is 2.27.

B6: L1020H1007 (antibody, V domains shown)
VH: B1 VH with N58S
VL: B1 VL with N31S, P57T
notes: human kappa
For the molecule B6, in assay [2], the “OD 450/OD450Control antibody 1” value was 0.4.

B7: L1012H1000 (antibody, V domains shown)
VH: B1 VH
VL: not shown
notes: human kappa
As to B7, the “OD 450/OD450Control antibody 1” value in assay [2] stood at 1.22.

B8: L1012H1031 (antibody, V domains shown)
VH: B1 VH with Q6E, H13Q, G24A, N58S, M90T
VL: not shown
notes: human kappa
As for B8, the “OD 450/OD450Control antibody 1” value in assay [2] amounted to 0.16.

B9: L1017H1000 (antibody, V domains shown)
VH: B1 VH
VL: not shown
notes: human kappa
For the molecule B9, in assay [2], the “OD 450/OD450Control antibody 1” value was found to be 0.49.

B10: L1021H1027 (antibody, V domains shown)
VH: B1 VH with Q6E, G24A, N58S, M90T, D103P, Y104W
VL: B1 VL with N31S, Y50F
notes: human kappa
In the case of B10, in assay [1], the “Inhibitory rate … of IL-4” value is 1.02 and the “Inhibitory rate … of IL-13” value stood at 0.94. For the same molecule, the “OD 450/OD450Control antibody 1” value in assay [2] amounted to 0.29.

B11: L1020H1031 (antibody, V domains shown)
VH: B1 VH with Q6E, H13Q, G24A, N58S, M90T
VL: B1 VL with N31S, P57T
notes: human kappa
Turning to B11, the “OD 450/OD450Control antibody 1” value in assay [2] is 1.12.

B12: L1020H1016 (antibody, V domains shown)
VH: B1 VH with D103P, Y104W
VL: B1 VL with N31S, P57T
notes: human kappa
Regarding B12, in assay [2], the “OD 450/OD450Control antibody 1” value worked out at 0.8.

B13: L1012H1007 (antibody, V domains shown)
VH: B1 VH with N58S
VL: not shown
notes: human kappa
Turning to B13, in assay [2], the “OD 450/OD450Control antibody 1” value was 0.4.

B14: L1020H1020 (antibody, V domains shown)
VH: B1 VH with N58S, D103P, Y104W
VL: B1 VL with N31S, P57T
notes: human kappa
With B14, the “OD 450/OD450Control antibody 1” value in assay [2] amounted to 0.26.

B15: L1019H1000 (antibody, V domains shown)
VH: B1 VH
VL: B1 VL with Y50F, P57T
notes: human kappa
Turning to B15, in assay [3], the “Inhibitory rate … of IL-4” value was determined as 0.72 and the “Inhibitory rate … of IL-13” value was found to be 0.49. For the same molecule, the “OD 450/OD450Control antibody 1” value in assay [2] amounted to 1.79.

B16: L1015H1000 (antibody, V domains shown)
VH: B1 VH
VL: B1 VL with N31S, Y50F, A96P, G97P
notes: human kappa
For the molecule B16, in assay [2], the “OD 450/OD450Control antibody 1” value amounted to 0.67.

B17: L1013H1000 (antibody, V domains shown)
VH: B1 VH
VL: B1 VL with Y50F, P57T, A96P, G97P
notes: human kappa
With B17, in assay [2], the “OD 450/OD450Control antibody 1” value was determined as 0.24.

B18: L1024H1007 (antibody, V domains shown)
VH: B1 VH with N58S
VL: B1 VL with Y50F
notes: human kappa
Regarding B18, in assay [3], the “Inhibitory rate … of IL-4” value is 0.86 and the “Inhibitory rate … of IL-13” value worked out at 0.7. Also, the “OD 450/OD450Control antibody 1” value in assay [2] amounted to 0.23.

B19: L1021H1007 (antibody, V domains shown)
VH: B1 VH with N58S
VL: B1 VL with N31S, Y50F
notes: human kappa
B19: in assay [1], the “Inhibitory rate … of IL-4” value was determined as 1 and the “Inhibitory rate … of IL-13” value came to 0.86. Moreover, in assay [2], the “OD 450/OD450Control antibody 1” value turned out to be 0.44.

B20: L1012H1029 (antibody, V domains shown)
VH: B1 VH with Q6E, H13Q, G24A, N58S, D103P, Y104W
VL: not shown
notes: human kappa
For the molecule B20, the “OD 450/OD450Control antibody 1” value in assay [2] was 0.11.

B21: L1020H1027 (antibody, V domains shown)
VH: B1 VH with Q6E, G24A, N58S, M90T, D103P, Y104W
VL: B1 VL with N31S, P57T
notes: human kappa
Take B21: the “OD 450/OD450Control antibody 1” value in assay [2] came to 0.4.

B22: L1024H1000 (antibody, V domains shown)
VH: B1 VH
VL: B1 VL with Y50F
notes: human kappa
As to B22, in assay [3], the “Inhibitory rate … of IL-4” value came to 0.44 and the “Inhibitory rate … of IL-13” value came out at 0.39. For the same molecule, in assay [2], the “OD 450/OD450Control antibody 1” value amounted to 0.69.

B23: L1012H1020 (antibody, V domains shown)
VH: B1 VH with N58S, D103P, Y104W
VL: not shown
notes: human kappa
As to B23, the “OD 450/OD450Control antibody 1” value in assay [2] is 0.11.

B24: L1024H1031 (antibody, V domains shown)
VH: B1 VH with Q6E, H13Q, G24A, N58S, M90T
VL: B1 VL with Y50F
notes: human kappa
Turning to B24, in assay [1], the “Inhibitory rate … of IL-4” value turned out to be 1.01 and the “Inhibitory rate … of IL-13” value came to 0.94. Further, the “OD 450/OD450Control antibody 1” value in assay [2] is 0.9.

B25: L1022H1000 (antibody, V domains shown)
VH: B1 VH
VL: B1 VL with P57T
notes: human kappa
For the molecule B25, in assay [3], the “Inhibitory rate … of IL-4” value was -0.05 and the “Inhibitory rate … of IL-13” value was 0.02. For the same molecule, the “OD 450/OD450Control antibody 1” value in assay [2] came to 0.16.

B26: L1016H1000 (antibody, V domains shown)
VH: B1 VH
VL: B1 VL with N31S, Y50F, P57T, A96P, G97P
notes: human kappa
For the molecule B26, the “OD 450/OD450Control antibody 1” value in assay [2] came to 0.27.
